{
  "source": "IntAct's records for PubMed 17167415",
  "parents": {"B1": {"name": "DNA replication regulator SLD3 (Saccharomyces cerevisiae), P53135 (parent)", "chain": "METWEVIASVKEATKGLDLSLDHPLIIKSEDVPSNILQLLQQKNRRQLKHICMKSRKEYFLLEEYGPGFWVKWPYNYFNGYSLPERRTEVVTTVERERAKRETLKTWDELKFKELLHLWSEEPKGSCKLEKDKDLKLDMNPPDMKGESKINDYYSDPKEYIESKYYDALFSIHTPLAYFVKSNLVRLKNTCRTKYGSDSYKIAYQAMLQKFLLSIVQFKDRHDNRLLLEPFSSPIADEKRKNCLTKFVIQDENKNSSTIADLCVVLKSREIKLQILLLLEIIGLNDLDWNFRDFEKKYKLKLKKRSLNLTKKGLVRRRSKKKTSEKDKGIERITTSLDYCEQLDLYLDRACILDILLSSETPNPDAIEASNGTIQEHKKNILDKSKEASLVGFINYVLIPYFNKKVPHAVEFIIQKLKGPSMRPKRALKKVNDSTNVSSPNTVETYNRLSTSQRASRSSIINSVPSSPALRRVDANLFSRKSIASPTPELLNSRTNSNLNEFLESETRSLKRPSQLGRTKSDLTMNHLQKRQFSVSDLSTTRVPNSSTITLKTPFSHSTINAYKTMNNSFRRVGKRKDINETIRLHERVDSEENVQVQATPAVKKRTVTPNKKAQLQSIIESPLNFKDDDTHEGRKNTSNITSTPTNKPPENSSKRRVRRRLFAPEST", "partner": "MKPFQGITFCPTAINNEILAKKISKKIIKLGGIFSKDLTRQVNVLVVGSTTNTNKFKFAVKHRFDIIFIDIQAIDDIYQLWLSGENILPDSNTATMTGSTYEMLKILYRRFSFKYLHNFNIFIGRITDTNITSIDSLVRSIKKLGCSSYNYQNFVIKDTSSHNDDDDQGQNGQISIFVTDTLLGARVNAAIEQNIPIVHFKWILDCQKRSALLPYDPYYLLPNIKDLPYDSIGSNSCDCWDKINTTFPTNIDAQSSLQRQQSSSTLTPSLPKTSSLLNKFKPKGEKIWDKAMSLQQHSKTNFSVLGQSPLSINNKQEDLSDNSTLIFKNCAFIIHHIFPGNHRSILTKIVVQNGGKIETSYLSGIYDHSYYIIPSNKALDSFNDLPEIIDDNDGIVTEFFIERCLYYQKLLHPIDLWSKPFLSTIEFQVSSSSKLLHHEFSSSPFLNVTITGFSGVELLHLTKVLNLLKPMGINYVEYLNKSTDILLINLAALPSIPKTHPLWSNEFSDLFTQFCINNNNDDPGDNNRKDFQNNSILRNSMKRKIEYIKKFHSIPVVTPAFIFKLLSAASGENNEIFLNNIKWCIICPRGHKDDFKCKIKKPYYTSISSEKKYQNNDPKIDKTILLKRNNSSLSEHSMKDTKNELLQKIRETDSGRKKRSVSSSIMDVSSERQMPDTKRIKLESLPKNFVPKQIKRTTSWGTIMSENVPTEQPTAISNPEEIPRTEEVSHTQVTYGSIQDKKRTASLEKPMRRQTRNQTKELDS"}},
  "data": [
    {"variants_of": "B1", "settings": "with dpb11_yeast DPB11, P47027", "values": [
      {"variant": "T600A;S622A", "effect of a mutation on the interaction": "disrupting interaction strength"}
    ]}
  ]
}
